Test results reported in patent US20230065562A1, “DUAL CONTROLS FOR THERAPEUTIC CELL ACTIVATION OR ELIMINATION” (Bellicum Pharmaceuticals, Inc., priority 2015, published 2023).
Numbering of substitutions follows the chain as printed. Numbers in names are those of the source. Entries after “also recorded” stand apart in the source; their conditions may differ.

B1: F406T: modified iCasp9, F406T (protein)
chain: VDGFGDVGALESLRGNADLAYILSMEPCGHCLIINNVNFCRESGLRTRTGSNIDCEKLRRRFSSLHFMVEVKGDLTAKKMVLALLELARQDHGALDCCVVVILSHGCQASHLQFPGAVYGTDGCPVSVEKIVNIFNGTSCPSLGGKPKLFFIQACGGEQKDHGFEVASTSPEDESPGSNPEPDATPFQEGLRTFDQLDAISSLPTPSDIFVSYSTFPGFVSWRDPKSGSWYVETLDDIFEQWAHSEDLQSLLLRVANAVSVKGIYKQMPGCFNTLRKKLFFKTSASRA
B2: T317C: modified iCasp9, T317C (protein)
chain: B1 chain with T185C, T274F
B3: D327K: modified iCasp9, D327K (protein)
chain: B1 chain with D195K, T274F
B4: T317A: modified iCasp9, T317A (protein)
chain: B1 chain with T185A, T274F
B5: L329K: modified iCasp9, L329K (protein)
chain: B1 chain with L197K, T274F
B6: D327R: modified iCasp9, D327R (protein)
chain: B1 chain with D195R, T274F
B7: Q328K: modified iCasp9, Q328K (protein)
chain: B1 chain with Q196K, T274F
B8: Q328R: modified iCasp9, Q328R (protein)
chain: B1 chain with Q196R, T274F
B9: F406L: modified iCasp9, F406L (protein)
chain: B1 chain with T274L
B10: F326K: modified iCasp9, F326K (protein)
chain: B1 chain with F194K, T274F
B11: L329G: modified iCasp9, L329G (protein)
chain: B1 chain with L197G, T274F
B12: D327G: modified iCasp9, D327G (protein)
chain: B1 chain with D195G, T274F
B13: A331K: modified iCasp9, A331K (protein)
chain: B1 chain with A199K, T274F
B14: G402I: modified iCasp9, G402I (protein, UniProt P55211 1-416, looked up, variant G402I)
chain: MDEADRRLLRRCRLRLVEELQVDQLWDALLSRELFRPHMIEDIQRAGSGSRRDQARQLIIDLETRGSQALPLFISCLEDTGQDMLASFLRTNRQAAKLSKPTLENLTPVVLRPEIRKPEVLRPETPRPVDIGSGGFGDVGALESLRGNADLAYILSMEPCGHCLIINNVNFCRESGLRTRTGSNIDCEKLRRRFSSLHFMVEVKGDLTAKKMVLALLELAQQDHGALDCCVVVILSHGCQASHLQFPGAVYGTDGCPVSVEKIVNIFNGTSCPSLGGKPKLFFIQACGGEQKDHGFEVASTSPEDESPGSNPEPDATPFQEGLRTFDQLDAISSLPTPSDIFVSYSTFPGFVSWRDPKSGSWYVETLDDIFEQWAHSEDLQSLLLRVANAVSVKGIYKQMPICFNFLRKKLFFKTS
modifications: FKBP12-F36V fusion (iCasp9), CARD deleted
B15: F319A: modified iCasp9, F319A (protein, UniProt P55211 1-416, looked up, variant F319A)
chain: B14 chain with F319A, I402G
modifications: FKBP12-F36V fusion (iCasp9), CARD deleted
B16: ^316ATPF^319AVPI: modified iCasp9, ATPF replaced by SMAC/Diablo AVPI (protein, UniProt P55211 1-416, looked up, variant T317V F319I)
chain: B14 chain with T317V, F319I, I402G
modifications: FKBP12-F36V fusion (iCasp9), CARD deleted
B17: D315A: modified iCasp9, D315A (auto-proteolysis site) (protein, UniProt P55211 1-416, looked up, variant D315A)
chain: B14 chain with D315A, I402G
modifications: FKBP12-F36V fusion (iCasp9), CARD deleted
B18: C403P: modified iCasp9, C403P (protein, UniProt P55211 1-416, looked up, variant C403P)
chain: B14 chain with I402G, C403P
modifications: FKBP12-F36V fusion (iCasp9), CARD deleted
B19: G402Y: modified iCasp9, G402Y (protein, UniProt P55211 1-416, looked up, variant G402Y)
chain: B14 chain with I402Y
modifications: FKBP12-F36V fusion (iCasp9), CARD deleted

Tested on: HEK293T/16 cells
Experiment: Secreted alkaline phosphatase (SEAP)-based surrogate killing assay of iCasp9 mutants
Assay type: cell-based, human
Conditions: SEAP assay without AP1903
Description: Early passage HEK293T/16 cells (ATCC, Manassas, Va.) were maintained in IMDM, GlutaMAX™ (Life Technologies, Carlsbad, Calif.) supplemented with 10% FBS, 100 U/mL penicillin, and 100 […] until transfection in a humidified, 37° C., 5% CO2/95% air atmosphere. Cells in logarithmic-phase growth were transiently transfected with 800 ng to 2 μg of expression plasmid encoding iCasp9 mutants and 500 ng of an expression plasmid encoding SRα promoter driven SEAP per million cells in 15-mL conical tubes. […] GeneJammer® Transfection Reagent at a ratio of 3 μl per ug of plasmid DNA was used to transiently transfect HEK293T/16 cells in the absence of antibiotics. 100 μl or 2 mL of the transfection mixture was added to each well in 96-well or 6-well plate, respectively.
Briefly, after 65° C. heat denaturation for 45 minutes to reduce background caused by endogenous (and serum-derived) alkaline phosphatases that are sensitive to heat, 5 μl of supernatants was added to 95 μl of PBS and added to 100 μl of substrate buffer, containing 1 μl of 100 mM 4-methylumbelliferyl phosphate (4-MUP; Sigma, St. Louis, Mo.) re-suspended in 2 M diethanolamine. Hydrolysis of 4-MUP by SEAP produces a fluorescent […] with excitation/emission (355/460 nm), which can be easily measured. Assays were performed in black opaque 96-well plates to minimize fluorescence leakage between wells. […] of the mixture was seeded onto each well of a 96-well plate. […] For the assay, 4-methylumbelliferyl phosphate substrate was hydrolyzed by SEAP to 4-methylumbelliferon, a metabolite that can be excited with 364 nm and detected with an emission filter of 448 nm. Since SEAP is used as a marker for cell viability, reduced SEAP reading corresponds with increased iCaspase-9 activities.

| Molecule | Basal Activity (relative to wild type/unmodified Caspase-9) | Basal Activity (relative to wild type/unmodified Caspase-9) (listed as G4021) | Basal Activity (relative to wild type/unmodified Caspase-9) (listed as D315) |
| --- | --- | --- | --- |
| B1 | lowered basal activity; also recorded: Decreased | – | – |
| B2 | no effect | – | – |
| B3 | did not lower basal activity; also recorded: Increased | – | – |
| B4 | lower basal activity; also recorded: reduce basal activity; also recorded: Decreased | – | – |
| B5 | did not lower basal activity; also recorded: Increased | – | – |
| B6 | did not lower basal activity; also recorded: Increased | – | – |
| B7 | did not lower basal activity; also recorded: Increased | – | – |
| B8 | did not lower basal activity; also recorded: Increased | – | – |
| B9 | lowered basal activity and dead | – | – |
| B10 | did not lower basal activity; also recorded: Increased | – | – |
| B11 | did not lower basal activity; also recorded: Increased | – | – |
| B12 | did not lower basal activity; also recorded: Increased | – | – |
| B13 | did not lower basal activity; also recorded: Increased | – | – |
| B14 | dead | catalytically inactive | – |
| B15 | no effect | – | – |
| B16 | no effect | – | – |
| B17 | Decreased | – | reduced basal activity |
| B18 | catalytically inactive and dead | – | – |
| B19 | catalytically inactive and dead | – | – |
